Laboratory results from patent US20260042834A1 (HBM ALPHA THERAPEUTICS, published 2026).
Like-named read-outs stand apart in the source and are kept apart here.

Columns and labels:
human UCN2 peptide [1] = molecular target: T1, human UCN2 peptide (human, UniProt Q96RP3 72-109, limits assumed, not fully specified; biotin at N- or C-terminus in the ELISA); assay: ELISA on streptavidin-captured hUCN2 (NT biotin) and hUCN2 (CT biotin), mAb at 100 nM and 10 nM; axis labelled RLU, scale 0-4
T1 construct: also called hUCN2; hUCN2 (NT Biotin)
T1 peptide (looked up): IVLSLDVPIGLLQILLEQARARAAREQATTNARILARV
Method: (§1) Streptavidin (Thermo, Cat: 21125) was diluted in PBS with a concentration of 2 μg/mL. 100 μL of diluted streptavidin was added per well to ELISA microplates, and the plates were incubated overnight at 4° C. Plates were blocked with ELISA blocking solution (containing 2% w/v BSA, 0.05% (v/v) Tween-20, pH 7.4 PBS buffer) at 37° C. for 1 hour, and then incubated with either 1 μg/mL hUCN1 (NT Biotin), hUCN1 (CT Biotin), hUCN2 (NT Biotin), hUCN2 (CT Biotin), hUCN3 (NT Biotin), or hUCN3 (CT Biotin) for 1 hour at 37° C. […] 100 μl of TMB Substrate (Biopanda, Cat: TMB-S-003) was added, and the plates were incubated at room temperature for 15 minutes. 100 μL of ELISA stopping solution (Solarbio, Cat #: C1058) was then added to terminate the reaction, and the OD450 nm was determined by an ELISA plate reader (Molecular Devices, Spectra max 384 plus).

[2] = molecular target: T2, corticotropin-releasing hormone (CRH) peptide (human and mouse, not fully specified); assay: cell-based or functional assay
T2 peptide: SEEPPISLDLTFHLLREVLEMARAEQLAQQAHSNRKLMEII

biotinylated CRH = molecular target: T3, biotinylated CRH (human and mouse, not fully specified; biotinylated, position not stated); assay: Octet BLI, biotinylated CRH on SA sensor
T3 construct: also called Biotin-CRH; biotin-labeled CRH
T3 peptide: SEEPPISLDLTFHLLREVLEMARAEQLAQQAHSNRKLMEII

hUCN1 (CT Biotin) = molecular target: T4, hUCN1 (CT Biotin) (human, UniProt P55089 83-122, biotin at the C-terminus); assay: ELISA on streptavidin-captured hUCN1 (CT biotin), mAb at 100 nM and 10 nM; axis labelled RLU, scale 0-4
T4 construct: also called human UCN1 (CT biotin)
T4 peptide (looked up): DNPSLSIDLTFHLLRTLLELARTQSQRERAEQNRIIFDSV
Method: as §1, with “100 μL of ELISA stopping solution (Solarbio, Cat #: C1058) was then added to terminate the reaction, and the OD450 nm was determined by an ELISA plate reader (Molecular Devices, Spectra max 384 plus).” left out

human UCN3 peptide [3] = molecular target: T5, human UCN3 peptide (human, UniProt Q969E3 120-157, not fully specified; biotin at N- or C-terminus in the ELISA); assay: ELISA on streptavidin-captured hUCN3 (NT biotin) and hUCN3 (CT biotin), mAb at 100 nM and 10 nM; axis labelled RLU, scale 0-4
T5 construct: also called hUCN3; hUCN3 (NT Biotin)
T5 peptide (looked up): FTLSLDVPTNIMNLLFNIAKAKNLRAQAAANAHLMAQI
Method: as §1

hUCN1 (NT Biotin) [4] = molecular target: T6, hUCN1 (NT Biotin) (human, UniProt P55089 83-122, biotin at the N-terminus); assay: ELISA on streptavidin-captured hUCN1 (NT biotin), mAb at 100 nM and 10 nM; axis labelled RLU, scale 0-4
T6 construct: also called human UCN1 (NT biotin)
T6 peptide (looked up): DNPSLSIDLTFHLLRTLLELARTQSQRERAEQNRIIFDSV
Method: as §1

CRH (CT Biotin) [5] = molecular target: T7, CRH (CT Biotin) (human and mouse, C-terminal K-Biotin); assay: ELISA, biotin peptide on streptavidin plate
T7 construct: also called Peptide 4 (CRH-Biotin)
T7 peptide: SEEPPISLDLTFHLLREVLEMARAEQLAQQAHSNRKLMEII
In short: (§2)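 Plates were coated overnight at 4° C with streptavidin at 2 μg/ml in PBS to capture the biotinylated peptide. After binding steps, TMB substrate was developed for 15 minutes at room temperature, the reaction was stopped, and OD450 nm was read.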

CRH (NT Biotin) [6] = molecular target: T8, CRH (NT Biotin) (human and mouse, not fully specified; biotin at the N-terminus); assay: ELISA, biotin peptide on streptavidin plate
T8 peptide: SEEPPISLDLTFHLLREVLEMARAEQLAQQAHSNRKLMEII
In short: as §2

N-Terminal CRH = molecular target: T9, N-Terminal CRH (human and mouse, C-terminal K-Biotin); assay: ELISA, biotin peptide on streptavidin plate
T9 construct: also called N-Ter-CRH (CT-Bion)
T9 peptide: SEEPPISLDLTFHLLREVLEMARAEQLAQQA
In short: as §2

CRH (CT-Biotin) [7] = molecular target: T10, CRH (CT-Biotin) (human and mouse, biotin on the added C-terminal K (-K-Biotin)); assay: ELISA on streptavidin-captured CRH (CT biotin), OD450
T10 construct: also called Peptide 4 (CRH-Biotin); C-terminally biotinylated corticotropin-releasing hormone
T10 peptide: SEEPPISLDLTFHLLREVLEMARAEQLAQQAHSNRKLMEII
Method: (§3) Streptavidin (Thermo, Cat: 21125) was diluted in PBS to a concentration of 2 μg/ml. 100 μl of diluted streptavidin was added per well to ELISA microplates, and the plates were incubated overnight at 4° C. […] 100 μL of 3,3′,5,5′-tetramethylbenzidine (TMB) substrate (Biopanda, Cat: TMB-S-003) was added, and the plates were incubated at room temperature for 15 minutes. 100 μL of ELISA stopping solution (Solarbio, Cat #: C1058) was added to terminate the reaction, and the optical density at 450 nm (OD450 nm) was determined by an ELISA plate reader (Molecular Devices, Spectra max 384 plus).

CRH (NT-Biotin) [8] = molecular target: T11, CRH (NT-Biotin) (human and mouse, not fully specified; biotin at the N-terminus); assay: ELISA on streptavidin-captured CRH (NT biotin), OD450
T11 construct: also called Biotin-CRH; N-terminally biotinylated corticotropin-releasing hormone
T11 peptide: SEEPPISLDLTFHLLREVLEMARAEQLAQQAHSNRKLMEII
Method: as §3

CRH (NT-Biotin) [9] = molecular target: T11, CRH (NT-Biotin); assay: ELISA, N-terminally biotinylated CRH on streptavidin-coated plate
In short: as §2

[10] = molecular target: T12, corticotropin-releasing hormone (CRH) peptide (human and mouse, not fully specified); assay: cell-based or functional assay
T12 peptide: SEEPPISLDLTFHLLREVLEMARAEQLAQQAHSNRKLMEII

CRH (CT-Biotin) [11] = molecular target: T10, CRH (CT-Biotin); assay: ELISA on streptavidin-captured CRH (CT biotin), OD450
Method: as §3

CRH (CT-Biotin) [12] = molecular target: T10, CRH (CT-Biotin); assay: ELISA, C-terminally biotinylated CRH on streptavidin-coated plate
In short: as §2

CRH (NT-Biotin) [13] = molecular target: T11, CRH (NT-Biotin); assay: ELISA on streptavidin-captured CRH (NT biotin), OD450
Method: as §3

CRH (CT Biotin) [14] = molecular target: T7, CRH (CT Biotin); assay: ELISA on streptavidin-captured CRH (CT biotin), OD450
Method: as §3

CRH (NT Biotin) [15] = molecular target: T8, CRH (NT Biotin); assay: ELISA on streptavidin-captured CRH (NT biotin), OD450
Method: as §3

human UCN2 peptide [16] = molecular target: T1, human UCN2 peptide; assay: ELISA on streptavidin-captured hUCN2 (NT biotin) and hUCN2 (CT biotin), mAb at 100 nM and 10 nM, OD450
Method: as §1

hUCN1 (NT Biotin) [17] = molecular target: T6, hUCN1 (NT Biotin); assay: ELISA on streptavidin-captured hUCN1 (NT biotin), OD450
Method: as §3

human UCN3 peptide [18] = molecular target: T5, human UCN3 peptide; assay: ELISA on streptavidin-captured hUCN3 (NT biotin) and hUCN3 (CT biotin), mAb at 100 nM and 10 nM, OD450
Method: as §1

B1: PR302334-26 (antibody, human IgG1, kappa, V domains shown)
VH: EVQLVESGGGLVQPGGSLRLSCAASGFTFSTYAMSWVRQAPGKGLEWVASIRSGGTTYYPDSVKGRFTISRDNSKNSLYLQMNSLRAEDTAVYYCTRGIDWGQGTTVTVSS
VL: DIVMTQSPDSLAVSLGERATINCKASQSVNNDVAWYQQKPGQPPRLLIYYASNRYTGVPDRFSGSGSGTDFTLTISSLQAEDLAVYFCQQDYSSWTFGGGTKVEIKR
notes: Humanized variant of PR302334
Does B1 bind (human UCN2 peptide [1])?
Result: no binding (tested: 100 nM)

What about the “CHO-CRE-hCRHR1 0.5 nM CRH IC50” value [2] of the same binder?
Its value is 1.1 nM.

What about the Kd (biotinylated CRH) of the same binder?
Its Kd is less than 0.001 nM.

What about the koff (biotinylated CRH) of the same binder?
Its koff is less than 1e-07 s⁻¹.

And the kon (biotinylated CRH)?
Its kon is 329000 M⁻¹ s⁻¹.

Does B1 bind (hUCN1 (CT Biotin))?
Result: no binding (tested: 100 nM)

Does B1 bind (human UCN3 peptide [3])?
Result: no binding (tested: 100 nM)

Does B1 bind (hUCN1 (NT Biotin) [4])?
Result: no binding (tested: 100 nM)

And the EC50 (CRH (CT Biotin) [5])?
The EC50 was 0.028 nM.

What about the EC50 (CRH (NT Biotin) [6]) of the same binder?
Its EC50 is 0.029 nM.

What about the EC50 (N-Terminal CRH) of the same binder?
Its EC50 is 0.029 nM.

B2: PR004290 (antibody, human IgG1, kappa, V domains shown)
VH: EVQLVESGGVLVQPGGSLRLSCAASGFTFSSYWMTWVRQAPGKGLEWVANIKQDGSEKYYVDSVKGRFTISRDNAKNSLFLQMNSLRAEDTAVYYCARTLIFDYWGQGTLVTVSS
VL: DIVMTQSPLSLPVTPGEPASISCRSSQSLLHSTGYNSLEWYLQKPGQSPQLLIYLGSNRASGVPDRFSGSGSGTDFTLKISRVEAEDVGIYYCMQTLQTPITFGQGTRLEIKR
notes: Expressed recombinantly with human IgG1 wildtype Fc; also called Hybridoma Clone 28b3; Series 1 mAb
With B2 as the binder, how does the “EC50 (read off the curve)” value (CRH (CT-Biotin) [7]) read?
The value was roughly 0.03 nM.

And the “EC50 (read off the curve)” value (CRH (NT-Biotin) [8])?
The value was roughly 0.01 nM.

And the EC50 (CRH (NT-Biotin) [9])?
The EC50 was 0.029 nM.

What about the “hCRHR1 Reporter IC50” value [10] of the same binder?
The value was 3.69 nM.

What about the “EC50 (read off the curve)” value (CRH (CT-Biotin) [11]) of the same binder?
The value was roughly 0.01 nM.

And the EC50 (CRH (CT-Biotin) [12])?
The EC50 was 0.032 nM.

And the “EC50 (read off the curve)” value (CRH (NT-Biotin) [13])?
The value was roughly 0.05 nM.

B3: PR302309-18 (antibody, human IgG1, kappa, V domains shown)
VH: QVQLVQSGAEVKKPGASVKVSCKASGYTFTNYGMNWVRQAPGQRLEWMGWINTYTGEPIYTDDFKGRVTITRDTSASTAYMELSSLRSEDTAVYYCARSTMITTGGVFAYWGQGTLVTVSS
VL: DVVMTQSPLSLPVTLGQPASISCRSSQTIVHSDGNTYLEWYQQRPGQSPRLLIYKVSNRFSGVPDRFSGSGSGTDFTLKISRVEAEDLGVYYCFQGSHVPWTFGGGTKVEIKR
notes: Humanized variant of PR302309
Which “EC50 (read off the curve)” value (CRH (CT Biotin) [14]) does the source give for B3 here?
Its value is roughly 0.03 nM.

And the “EC50 (read off the curve)” value (CRH (NT Biotin) [15])?
Its value is roughly 0.03 nM.

Does B3 bind (human UCN2 peptide [16])?
Result: no binding (tested: 100 nM)

And the Kd (biotinylated CRH)?
The Kd was less than 0.001 nM.

What about the koff (biotinylated CRH) of the same binder?
Its koff is less than 1e-07 s⁻¹.

And the kon (biotinylated CRH)?
The kon was 126000 M⁻¹ s⁻¹.

What about the “EC50 (read off the curve)” value (hUCN1 (NT Biotin) [17]) of the same binder?
The value was roughly 0.1 nM.

And the EC50 (N-Terminal CRH)?
Its EC50 is 0.028 nM.

Does B3 bind (human UCN3 peptide [18])?
Result: no binding (tested: 100 nM)
